One block for each molecule: values may come before it.
How the values were obtained:
[1] = test system: human neuroblastoma SHSY5Y; assay: Marker enzyme expression (ChAT, TH) in the presence of each ligand of the receptor tyrosine kinase; format: cell-based; conditions: SHSY5Y cells, ChAT vs TH, beta-actin control, FIG. 19
Excerpt: Cholinergic neuron-like cells were identified by using anti-choline acetyltransferase antibody, and dopaminergic neuron-like cells were identified by using anti-tyrosine hydroxylase antibody, both of which are available from Clontech.
Next, the marker enzyme expression in the presence of each ligand of the receptor tyrosine kinase has been studied.

[2] = test system: human neuroblastoma SHSY5Y; assay: Differentiation (neuritegenesis) of SH-SY5Y cells by RA or NGF; format: cell-based; conditions: SH-SY5Y culture with RA or NGF added, FIG. 13
Method: Human neuroblastoma (SHSY5Y) cells were maintained in Eagle's minimum essential medium (EMEM) supplemented with 10% (v/v) foetal bovine serum (FBS), 2% (v/v) glutamine and 1% (v/v) penicillin/streptomycin (10% medium), hereafter referred to as growth medium. Cells were incubated at 37° C. in a humidified atmosphere of 5% carbon dioxide.
Differentiation has been performed according to Yamada Y. et al., Neurosci Lett. 2004 Jun. 24; 364(1):11-15. Briefly, 100 ng/ml of NGF or […] of retinoic acid was added to the culture medium differentiate the SHSY5Y cells. Usually, when retinoic acid is added, the cell differentiates into cholinergic neuron-like cell as exemplified in FIG. 13. When NGF is added, the cell differentiates into dopaminergic neuron-like cells as exemplified in FIG. 13.

Marker enzyme expression (ChAT, TH) in the presence of ligand [1]: dopaminergic
Molecule: insulin: ligand of receptor tyrosine kinase INSR [reference compound]

Marker enzyme expression (ChAT, TH) in the presence of ligand [1]: dopaminergic
B1: Pehrin A3: ligand of receptor tyrosine kinases EPHA2 and EPHA3 (protein, UniProt P52797 23-214, looked up)
Ephrin-A3: QGPGGALGNRHAVYWNSSNQHLRREGYTVQVNVNDYLDIYCPHYNSSGVGPGAGPGPGGGAEQYVLYMVSRNGYRTCNASQGFKRWECNRPHAPHSPIKFSEKFQRYSAFSLGYEFHAGHEYYYISTPTHNLHWKCLRMKVFVCCASTSHSGEKPVPTLPQFTMGPNVKINVLEDFEGENPQVPKLEKSISG

More lines, now with the values behind:

B2: NGF: NGF (Sigma 2.5 S #N-6009) (protein, UniProt P01139 122-241, looked up)
Beta-nerve growth factor: SSTHPVFHMGEFSVCDSVSVWVGDKTTATDIKGKEVTVLAEVNINNSVFRQYFFETKCRASNPVESGCRGIDSKHWNSYCTTTHTFVKALTTDEKQAAWRFIRIDTACVCVLSRKATRRG
modifications: 2.5S NGF
Marker enzyme expression (ChAT, TH) in the presence of ligand [1]: dopaminergic
Differentiation of SH-SY5Y cells [2]: differentiated into doperminergia neuron-like cells

B3: BDNF: ligand of receptor tyrosine kinase NTRK2 (protein, UniProt P23560 19-247, looked up)
Neurotrophic factor BDNF …: APMKEANIRGQGGLAYPGVRTHGTLESVNGPKAGSRGLTSLADTFEHVIEELLDEDQKVRPNEENNKDADLYTSRVMLSSQVPLEPPLLFLLEEYKNYLDAANMSMRVRRHSDPARRGELSVCDSISEWVTAADKKTAVDMSGGTVTVLEKVPVSKGQLKQYFYETKCNPMGYTKEGCRGIDKRHWNSQCRTTQSYVRALTMDSKKRIGWRFIRIDTSCVCTLTIKRGR
Marker enzyme expression (ChAT, TH) in the presence of ligand [1]: dopaminergic

B4: Ephrin B2: ligand of receptor tyrosine kinases EPHB1, EPHB2, EPHB3 (protein, UniProt P52799 28-333, looked up)
Ephrin-B2: IVLEPIYWNSSNSKFLPGQGLVLYPQIGDKLDIICPKVDSKTVGQYEYYKVYMVDKDQADRCTIKKENTPLLNCAKPDQDIKFTIKFQEFSPNLWGLEFQKNKDYYIISTSNGSLEGLDNQEGGVCQTRAMKILMKVGQDASSAGSTRNKDPTRRPELEAGTNGRSSTTSPFVKPNPGSSTDGNSAGHSGNNILGSEVALFAGIASGCIIFIVIIITLVVLLLKYRRRHRKHSPQHTTTLSLSTLATPKRSGNNNGSEPSDIIIPLRTADSVFCPHYEKVSGDYGHPVYIVQEMPPQSPANIYYKV
Marker enzyme expression (ChAT, TH) in the presence of ligand [1]: dopaminergic

Reference: patent US20070174009A1, “Methods and systems for analyzing a network of biological functions” (National Institute Of Advanced Industrial Science And …, priority 2004, published 2007)
